# T1: EFIYLRPF
# T1 peptide: EFIYLRPF
# T2: RRGWHFYD
# T2 peptide: RRGWHFYD
# T3: LY75 tryptic peptide GWHFYDDR (765-772)
# T3 construct: Tryptic peptide of recombinant LY75, eluted from LY75_A1 beads and identified by LC-MS/MS
# T3 peptide: GWHFYDDR
# T4: PWRRGWHF
# T4 peptide: PWRRGWHF
# T5: DREFIYLR
# T5 peptide: DREFIYLR
# T6: YDDREFIY
# T6 peptide: YDDREFIY
# T7: NLYKIIPK
# T7 peptide: NLYKIIPK
# T8: KTLTWHSA
# T8 peptide: KTLTWHSA
# T9: VKYLNNLY
# T9 peptide: VKYLNNLY
# T10: TLTWHSAK
# T10 peptide: TLTWHSAK
# T11: KIIPKTLT
# T11 peptide: KIIPKTLT
# T12: LSRLTYSS
# T12 peptide: LSRLTYSS
# T13: RHFVSLCQ
# T13 peptide: RHFVSLCQ
# T14: VSLCQKYS
# T14 peptide: VSLCQKYS
# T15: CQKYSEVK
# T15 peptide: CQKYSEVK
# T16: FTSCSERH
# T16 peptide: FTSCSERH
# T17: QKYSEVKS
# T17 peptide: QKYSEVKS
# T18: SERHFVSL
# T18 peptide: SERHFVSL
# T19: SCSERHFV
# T19 peptide: SCSERHFV
# T20: LCQKYSEV
# T20 peptide: LCQKYSEV
# T21: SLCQKYSE
# T21 peptide: SLCQKYSE
# T22: TSCSERHF
# T22 peptide: TSCSERHF
# T23: FVSLCQKY
# T23 peptide: FVSLCQKY
# T24: ERHFVSLC
# T24 peptide: ERHFVSLC
# T25: ELTYSNFH
# T25 peptide: ELTYSNFH
# T26: LTYSNFHP
# T26 peptide: LTYSNFHP
# T27: YSNFHPLL
# T27 peptide: YSNFHPLL
# T28: TYSNFHPL
# T28 peptide: TYSNFHPL
# T29: EAVYFHQH
# T29 peptide: EAVYFHQH
# T30: AVYFHQHS
# T30 peptide: AVYFHQHS
# T31: VYFHQHSI
# T31 peptide: VYFHQHSI
# T32: YFHQHSIL
# T32 peptide: YFHQHSIL
# Tests used:
# EFIYLRPF = target: T1, EFIYLRPF; assay: peptide microarray, 1 µg/mL LY75_A1, anti-human IgG Alexa 647
# Experimental: (§1) The chip comprised three panels such that the experiment was performed in triplicate. […] The binding assay was performed under the following conditions:—The microarray comprising the contiguous peptides in triplicate was washed with 1 mL of binding buffer at 4° C. for 20 min. […] The array was again washed with 0.5 mL of washing buffer at 4° C. for 30 min.
# RRGWHFYD = target: T2, RRGWHFYD; assay: as above
# Experimental: as §1
# [1] = target: T3, LY75 tryptic peptide GWHFYDDR (765-772); assay: as above
# Experimental: as §1
# PWRRGWHF = target: T4, PWRRGWHF; assay: as above
# Experimental: as §1
# DREFIYLR = target: T5, DREFIYLR; assay: as above
# Experimental: as §1
# YDDREFIY = target: T6, YDDREFIY; assay: as above
# Experimental: as §1
# NLYKIIPK = target: T7, NLYKIIPK; assay: as above
# Experimental: as §1
# KTLTWHSA = target: T8, KTLTWHSA; assay: as above
# Experimental: as §1
# VKYLNNLY = target: T9, VKYLNNLY; assay: as above
# Experimental: as §1
# TLTWHSAK = target: T10, TLTWHSAK; assay: as above
# Experimental: as §1
# KIIPKTLT = target: T11, KIIPKTLT; assay: as above
# Experimental: as §1
# [2] = target: Contiguous 8mer peptides of LY75 protein spanning residues 216 to 1666 of the full length LY75 protein (peptide microarray); assay: peptide microarray, 1 ug/mL LY75_A1, anti-human IgG Alexa 647, scan at 635 nm
# LSRLTYSS = target: T12, LSRLTYSS; assay: peptide microarray, 1 µg/mL LY75_A1, anti-human IgG Alexa 647
# Experimental: as §1
# RHFVSLCQ = target: T13, RHFVSLCQ; assay: as above
# Experimental: as §1
# VSLCQKYS = target: T14, VSLCQKYS; assay: as above
# Experimental: as §1
# CQKYSEVK = target: T15, CQKYSEVK; assay: as above
# Experimental: as §1
# FTSCSERH = target: T16, FTSCSERH; assay: as above
# Experimental: as §1
# QKYSEVKS = target: T17, QKYSEVKS; assay: as above
# Experimental: as §1
# SERHFVSL = target: T18, SERHFVSL; assay: as above
# Experimental: as §1
# SCSERHFV = target: T19, SCSERHFV; assay: as above
# Experimental: as §1
# LCQKYSEV = target: T20, LCQKYSEV; assay: as above
# Experimental: as §1
# SLCQKYSE = target: T21, SLCQKYSE; assay: as above
# Experimental: as §1
# TSCSERHF = target: T22, TSCSERHF; assay: as above
# Experimental: as §1
# FVSLCQKY = target: T23, FVSLCQKY; assay: as above
# Experimental: as §1
# ERHFVSLC = target: T24, ERHFVSLC; assay: as above
# Experimental: as §1
# ELTYSNFH = target: T25, ELTYSNFH; assay: as above
# Experimental: as §1
# LTYSNFHP = target: T26, LTYSNFHP; assay: as above
# Experimental: as §1
# YSNFHPLL = target: T27, YSNFHPLL; assay: as above
# Experimental: as §1
# TYSNFHPL = target: T28, TYSNFHPL; assay: as above
# Experimental: as §1
# EAVYFHQH = target: T29, EAVYFHQH; assay: as above
# Experimental: as §1
# AVYFHQHS = target: T30, AVYFHQHS; assay: as above
# Experimental: as §1
# VYFHQHSI = target: T31, VYFHQHSI; assay: as above
# Experimental: as §1
# YFHQHSIL = target: T32, YFHQHSIL; assay: as above
# Experimental: as §1
binder,measurement,setting,value
"LY75_A1 monoclonal antibody (antibody, V domains shown, also called LY75A1 antibody; LY75_A1 antibody) VH: EVQLVESGGGLVKPGGSLRLSCAASGFTYSNAWMSWVRQAPGKGLEWVGRIKSKTDGGTTDYAAPVQGRFTISRDDSKNTLYLQMNSLKTEDTAVYYCTIFGVVSFDYWGQGTLVTVSS VL: DVQMTQSPSSLSASVGDRVTITCRASQSISDYLSWYQQRPGKAPNLLIYAASNLKTGVPSRFSGSGSGTDFTLTISTLQPEDFATYYCQQSYRSPWTFGQGTKVEIKR",binding result,EFIYLRPF,binds
same,binding result,RRGWHFYD,binds
same,binding result,[1],binds
same,binding result,PWRRGWHF,binds
same,binding result,DREFIYLR,binds
same,binding result,YDDREFIY,binds
same,binding result,NLYKIIPK,no binding (tested: 1 µg/mL)
same,binding result,KTLTWHSA,no binding (tested: 1 µg/mL)
same,binding result,VKYLNNLY,binds
same,binding result,TLTWHSAK,no binding (tested: 1 µg/mL)
same,binding result,KIIPKTLT,no binding (tested: 1 µg/mL)
same,average signal for all spots on the array (signal intensity (scale 1-65535)),[2],885
same,maximum signal intensity (signal intensity (scale 1-65535)),[2],25000
same,binding result,LSRLTYSS,binds
same,binding result,RHFVSLCQ,no binding (tested: 1 µg/mL)
same,binding result,VSLCQKYS,binds
same,binding result,CQKYSEVK,no binding (tested: 1 µg/mL)
same,binding result,FTSCSERH,binds
same,binding result,QKYSEVKS,no binding (tested: 1 µg/mL)
same,binding result,SERHFVSL,binds
same,binding result,SCSERHFV,binds
same,binding result,LCQKYSEV,no binding (tested: 1 µg/mL)
same,binding result,SLCQKYSE,no binding (tested: 1 µg/mL)
same,binding result,TSCSERHF,binds
same,binding result,FVSLCQKY,binds
same,binding result,ERHFVSLC,no binding (tested: 1 µg/mL)
same,binding result,ELTYSNFH,binds
same,binding result,LTYSNFHP,binds
same,binding result,YSNFHPLL,binds
same,binding result,TYSNFHPL,binds
same,binding result,EAVYFHQH,binds
same,binding result,AVYFHQHS,binds
same,binding result,VYFHQHSI,binds
same,binding result,YFHQHSIL,binds

# From patent US20160257760A1 (OXFORD BIOTHERAPEUTICS, published 2016)
